Here are results for one molecule from paper PMC4749977, “Alp7/TACC-Alp14/TOG generates long-lived, fast-growing MTs by an unconventional mechanism” (Scientific Reports, 2016).

Data set [1] concerns the target T1, Alp7-14 complex (full length Alp14 mixed with full length Alp7) (S. pombe, UniProt O94534 1-809; Q9URY2 1-474, biotin on the AviTag (BirA ligase co-expressed to ensure biotinylation)).
T1 construct: Alp14 of S. pombe, full length, as the chain of m1; Alp7 of S. pombe, full length, as the chain of m2; also called Alp7/TACC-Alp14/TOG; source: each from Sf9 insect cells (baculovirus), purified, then mixed
T1 sequence (looked up) 1: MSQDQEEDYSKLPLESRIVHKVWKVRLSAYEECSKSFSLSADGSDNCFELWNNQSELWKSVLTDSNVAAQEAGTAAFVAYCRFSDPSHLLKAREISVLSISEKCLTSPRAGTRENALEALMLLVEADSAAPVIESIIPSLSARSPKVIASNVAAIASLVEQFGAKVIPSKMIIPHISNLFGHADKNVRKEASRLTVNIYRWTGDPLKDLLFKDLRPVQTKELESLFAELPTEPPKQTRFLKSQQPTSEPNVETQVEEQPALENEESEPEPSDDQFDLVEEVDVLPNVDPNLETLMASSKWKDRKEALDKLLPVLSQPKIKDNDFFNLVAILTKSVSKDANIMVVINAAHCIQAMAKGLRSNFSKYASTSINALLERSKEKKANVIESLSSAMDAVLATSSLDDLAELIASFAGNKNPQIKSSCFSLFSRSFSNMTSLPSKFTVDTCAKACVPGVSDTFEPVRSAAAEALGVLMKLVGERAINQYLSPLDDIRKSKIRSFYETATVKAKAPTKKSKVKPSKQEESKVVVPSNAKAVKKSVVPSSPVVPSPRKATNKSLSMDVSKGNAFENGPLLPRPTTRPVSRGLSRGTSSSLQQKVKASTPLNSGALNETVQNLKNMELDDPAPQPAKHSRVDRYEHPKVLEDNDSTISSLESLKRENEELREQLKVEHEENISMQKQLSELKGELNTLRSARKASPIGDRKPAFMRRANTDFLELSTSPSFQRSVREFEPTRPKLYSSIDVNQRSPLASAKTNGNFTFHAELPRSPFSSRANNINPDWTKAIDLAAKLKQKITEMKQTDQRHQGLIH
T1 sequence (looked up) 2: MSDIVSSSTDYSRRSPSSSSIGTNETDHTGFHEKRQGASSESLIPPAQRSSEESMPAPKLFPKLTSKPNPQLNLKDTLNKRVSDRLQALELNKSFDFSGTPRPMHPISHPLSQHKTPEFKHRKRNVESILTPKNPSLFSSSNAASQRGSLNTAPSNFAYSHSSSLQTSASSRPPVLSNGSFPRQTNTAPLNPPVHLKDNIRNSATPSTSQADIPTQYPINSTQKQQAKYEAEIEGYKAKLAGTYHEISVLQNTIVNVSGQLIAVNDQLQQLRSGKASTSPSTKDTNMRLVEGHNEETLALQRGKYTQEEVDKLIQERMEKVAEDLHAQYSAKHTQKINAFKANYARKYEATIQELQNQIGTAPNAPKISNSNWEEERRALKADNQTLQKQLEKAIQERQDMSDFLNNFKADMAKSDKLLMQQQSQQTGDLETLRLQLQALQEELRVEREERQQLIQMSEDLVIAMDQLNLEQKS
Briefly: glycerol gradient centrifugation; 5-40% glycerol gradient of purified Alp14, Alp7 and tubulin, alone or mixed; tubulin as GTP-tubulin where stated; fractions on SDS-PAGE with Coomassie staining. The conditions noted are these: both partners purified.

Data set [2] concerns the target T2, Alp7 with Alp14-GFP (tip tracking Alp7-14 complexes) (S. pombe, UniProt O94534 1-809; Q9URY2 1-474, biotin on the AviTag (BirA ligase co-expressed to ensure biotinylation)).
T2 construct: Alp14 of S. pombe, as the chain of m9; Alp7 of S. pombe, full length, as the chain of m2; source: each from Sf9 insect cells (baculovirus), purified, added together to the assay
T2 sequence (looked up) 1: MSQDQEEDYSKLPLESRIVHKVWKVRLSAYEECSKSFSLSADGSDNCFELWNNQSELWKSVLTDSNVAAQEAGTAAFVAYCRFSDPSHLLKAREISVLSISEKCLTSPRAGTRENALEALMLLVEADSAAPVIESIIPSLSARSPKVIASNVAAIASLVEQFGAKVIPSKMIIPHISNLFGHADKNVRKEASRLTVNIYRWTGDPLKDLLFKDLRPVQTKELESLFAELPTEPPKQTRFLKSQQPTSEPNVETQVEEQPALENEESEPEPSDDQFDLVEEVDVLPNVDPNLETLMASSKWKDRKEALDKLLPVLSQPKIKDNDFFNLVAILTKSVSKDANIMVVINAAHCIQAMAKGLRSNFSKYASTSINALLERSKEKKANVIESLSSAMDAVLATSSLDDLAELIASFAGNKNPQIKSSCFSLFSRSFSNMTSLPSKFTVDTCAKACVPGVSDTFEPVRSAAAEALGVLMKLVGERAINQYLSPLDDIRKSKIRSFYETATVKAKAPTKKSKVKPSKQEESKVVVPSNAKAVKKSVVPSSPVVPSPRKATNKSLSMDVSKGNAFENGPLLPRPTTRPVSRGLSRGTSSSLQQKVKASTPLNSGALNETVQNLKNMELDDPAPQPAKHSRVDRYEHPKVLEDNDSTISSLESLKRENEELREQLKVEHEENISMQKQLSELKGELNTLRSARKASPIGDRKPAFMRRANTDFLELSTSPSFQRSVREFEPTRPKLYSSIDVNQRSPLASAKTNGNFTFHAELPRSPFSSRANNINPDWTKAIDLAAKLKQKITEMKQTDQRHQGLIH
T2 sequence (looked up) 2: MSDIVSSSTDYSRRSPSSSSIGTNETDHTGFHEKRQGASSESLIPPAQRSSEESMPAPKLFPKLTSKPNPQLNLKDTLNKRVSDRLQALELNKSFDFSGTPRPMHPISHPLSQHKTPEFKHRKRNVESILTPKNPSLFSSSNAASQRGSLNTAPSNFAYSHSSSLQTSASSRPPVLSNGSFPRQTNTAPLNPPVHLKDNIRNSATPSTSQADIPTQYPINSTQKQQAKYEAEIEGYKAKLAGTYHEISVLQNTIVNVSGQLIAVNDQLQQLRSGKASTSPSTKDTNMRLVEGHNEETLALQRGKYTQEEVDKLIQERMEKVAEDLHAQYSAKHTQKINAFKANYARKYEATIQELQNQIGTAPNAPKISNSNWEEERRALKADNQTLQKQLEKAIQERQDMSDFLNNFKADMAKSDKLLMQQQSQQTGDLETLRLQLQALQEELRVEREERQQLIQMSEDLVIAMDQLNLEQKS
Briefly: TIRF microscopy of Alp14-GFP on dynamic microtubules; dual-TIRF; MTs nucleated by immobilized Alexa488 labeled seeds using 6 μM S. pombe tubulin doped with 2.5% (150 nM) rhodamine labeled brain tubulin; Alp14-GFP without or with Alp7. The settings on record: both partners purified.

Data set [3] deals with the molecule itself. Briefly: DIC video microscopy of microtubule growth; addition of GTP-tubulin to plus and minus ends of MTs nucleated by axoneme fragments; growth rate against tubulin concentration, linear regression, apparent rate constants; 100 mM K-PIPES, 1 mM MgSO4, 2 mM EGTA, 1 mM DTT pH 6.9, 1 mM GTP, no glycerol, 25 °C.

B1: S. pombe single isoform (α1β) tubulin (complex)
chain 1: MREVISVHVGQAGVQIGNACWELYCLEHGIGPDGFPTENSEVHKNNSYLNDGFGTFFSETGQGKFVPRSIYVDLEPNVIDQVRTGPYKDLFHPEQMVTGKEDASNNYARGHYTVGKEMIDSVLERIRRMADNCSGLQGFLVFHSFGGGTGSGLGALLLERLNMEYGKKSNLQFSVYPAPQVSTSVVEPYNSVLTTHATLDNSDCTFMVDNEACYDICRRNLDIERPTYENLNRLIAQVVSSITASLRFAGSLNVDLNEFQTNLVPYPRIHFPLVTYSPIVSAAKAFHESNSVQEITNQCFEPYNQMVKCDPRTGRYMATCLLYRGDVIPRDVQAAVTSIKSRRTIQFVDWCPTGFKIGICYEPPQHVPGSGIAKVNRAVCMLSNTTSIAEAWSRLDHKFDLMYSKRAFVHWYVGEGMEEGEFSEAREDLAALERDYEEVGQDSMDNEMYEADEEY
chain 2: MREIVHIQAGQCGNQVGAAFWSTIADEHGLDSAGIYHGTSEAQHERLNVYFNEAAGGKYVPRAVLVDLEPGTMDAVKSGKFGNLFRPDNIIYGQSGAGNIWAKGHYTEGAELADAVLDVVRREAEACDALQGFQLTHSLGGGTGSGMGTLLLSKIREEYPDRMMATFSVAPAPKSSDTVVEPYNATLSMHQLVENSDETFCIDNEALSSIFANTLKIKSPSYDDLNHLVSAVMAGVTTSFRFPGELNSDLRKLAVNMVPFPRLHFFMVGFAPLAAIGSSSFQAVSVPELTQQMFDANNMMVAADPRHGRYLTVAALFRGKVSMKEVDEQIRSVQTKNSAYFVEWIPDNVLKAVCSVPPKDLKMSATFIGNSTSIQEIFRRLGDQFSAMFRRKAFLHWYTGEGMDEMEFTEAESNMNDLVSEYQQYQEAGIDEGDEDYEIEEEKEPLEY
notes: alpha-1 tubulin of S. pombe, untagged, endogenous; beta tubulin of S. pombe, untagged, endogenous; Used as free heterodimer (GTP or GDP form) in the gradients and polymerised into dynamic microtubules in the microscopy assays; the assay's format tells which; also called single isoform S. pombe tubulin; S. pombe tubulin; source: purified from S. pombe single isoform strain (mmsp174): ion exchange, …
B1: the binding result in data set [1] is on record as “binds”. Further, in data set [2], the binding result is recorded as “binds”. Moreover, in data set [3], the “Kd = koff/kon (critical concentration), minus end” value amounted to 0.9 µM and the “Kd = koff/kon (critical concentration), plus end” value was 1.2 µM.
